Results taken from paper PMC5339286, “A Novel Soybean ERF Transcription Factor, GmERF113, Increases Resistance to Phytophthora sojae Infection in Soybean”.

Biological target: GmERF113 (Glycine max (soybean) cv. Suinong 10, UniProt I1ML94 1-260)
Assay: EMSA; EMSA as described by Liu et al. (2006); buffer, salt, pH and temperature not stated
Conditions: protein: recombinant

Sequence of GmERF113 (I1ML94 entry or part of it): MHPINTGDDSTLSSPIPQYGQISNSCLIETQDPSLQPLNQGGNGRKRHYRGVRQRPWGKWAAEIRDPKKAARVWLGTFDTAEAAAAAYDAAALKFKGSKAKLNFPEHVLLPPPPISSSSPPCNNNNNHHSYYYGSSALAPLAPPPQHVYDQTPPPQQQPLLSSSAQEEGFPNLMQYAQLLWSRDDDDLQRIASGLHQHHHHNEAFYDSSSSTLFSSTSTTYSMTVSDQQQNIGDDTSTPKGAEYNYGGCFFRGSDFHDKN

Binder | binding result
GCC probe (GCC-box) (dsDNA) DNA 1: ATCCATAAGAGCCGCCACTAAAATAAGACCGATCAA DNA 2: TTGATCGGTCTTATTTTAGTGGCGGCTCTTATGGAT | binds
mGCC probe (mutated GCC-box) (dsDNA) DNA 1: ATCCATAAGATCCTCCACTAAAATAAGACCGATCAA DNA 2: TTGATCGGTCTTATTTTAGTGGAGGATCTTATGGAT | no binding
